Measured values published in paper PMC11542851.

What was measured:
[1] = target: clade 1a RBDs (SARS-CoV-1-related sarbecoviruses), yeast-displayed; assay: flow cytometry on cells
[2] = target: clade 1b RBDs (SARS-CoV-2-related sarbecoviruses), yeast-displayed; assay: flow cytometry on cells

B1: C68.61 (antibody, V domains shown)
VH: EVQLVQSGAEVKKPGESLKISCKGSAYIFTRYWIGWVRQMPGKGLEWMGIIYPGDSDTRYSPSFQGQVTISADKSISTAYLQWSSLKASDTAMYYCARSGTTNYFDYWGQGTLVTVSS
VL: DIQLTQSPSTLSASVGDRVTITCRASQSISSWLAWYQQKPGKAPKLLIYDASSLDSGVPSRFSGSGSGTDFTLTISSLQPDDFATYYCQQFNSYWTFGQGTKVEIK
- geomean EC50 across the clade [1]: 1.9 ng/mL
- geomean EC50 across the clade [2]: 0.25 ng/mL
